What all share (assay type): cell-based, human
Series [1] relates to OVCAR8 cells. Briefly: Viability (MTS) across cisplatin concentrations, stable microRNA clones. How it is done: (§1) Established ovarian cancer cell lines were obtained from the ATCC (OVCAR8, OVCAR5) and the University of Texas M.D. Anderson Cancer Center (HEYA8, SKOV3ip1). All cell lines were maintained at 37° C. in RPMI 1640 media (Invitrogen, Carlsbad, Calif.) supplemented with 10% fetal bovine serums (Hyclone, Logan, Utah) and 1% penicillin/streptomycin (Gibco, Carlsbad, Calif.). MicroRNA mimics and mimic controls (Dharmacon, Lafayette, Colo.) were transiently transfected into actively growing cultures using Lipofectamine 2000 (Invitrogen, Carlsbad, Calif.). After a 24-hour incubation, transfected cultures were washed, passaged and seeded into 96 well plates. Proliferation and apoptosis were measured at 72, 96 and 120 hours after transfection using standard assays (Cell Titer 96 Aqueous One; Caspase Glo 3/7; Promega, Madison, Wis.). pLemiR expression vectors (Open Biosystems/Thermo, Huntsville, Ala.) were prepared according to manufacturer's instructions and transfected into cells using Fugene 6 (Roche, Indianapolis, Ind.). Following transfection, stable clones were selected using puromycin (Invitrogen) at doses optimized for each line. Rates of proliferation and apoptosis were examined in stable transfectants 24, 48, 72 and 96 hours after selected cells had been passaged and dispensed into 96 well plates. Viability was assessed across a clinically relevant range of cisplatin concentrations using an MTS assay (Promega). Cisplatin was obtained from Teva Pharmaceuticals (Irvine, Calif.).
(§2) For this reason, the inventors created clones of OVCAR8 and SKOV3ip1 ovarian cancer cell lines stably expressing either miR-520h (n=3) and miR-520a (n=3). […] To assess the impact of these microRNAs on cisplatin-induced cell killing, the inventors examined the viability of OVCAR8 and SKOV3ip1 cells stably expressing either microRNA incubated with clinically relevant concentrations of cisplatin. […] It should be noted that SKOV3ip1 cells tolerated only very low levels of miR-520a expression. The impact of cisplatin treatment on rates of apoptosis differed dramatically between the two cell lines.

Series [2] concerns SKOV3ip1 cells. The description is as above. The procedure: as §1, §2
For series [3], the system named is established ovarian cancer cell lines. Kind of series: Proliferation or apoptosis in established ovarian cancer cell lines after mimic transfection. The settings on record: mimics vs control cultures; cell lines SKOV4, HEY, OVCAR8, OVCAR5. How it is done: as §1, with “Rates of proliferation and apoptosis were examined in stable transfectants 24, 48, 72 and 96 hours after selected cells had been passaged and dispensed into 96 well plates.” left out, “Cisplatin was obtained from Teva Pharmaceuticals (Irvine, Calif.).” left out

The test system of series [4] is OVCAR8 cells. Briefly: Apoptosis assay (Caspase Glo 3/7). The procedure: as §1
Series [5] concerns SKOV3ip1 cells. Briefly: Apoptosis assay (Caspase Glo 3/7). The procedure: as §1
The subject of series [6] is OVCAR8 cells. Kind of series: Proliferation assay (MTS, Cell Titer 96 Aqueous One). Conditions: OVCAR8, transient/acute mimic transfection vs non-silencing control, no cisplatin. The procedure:
as §1

“Also recorded” adds a separate entry of the source.

Turning to `N.N.[Cl][Pt][Cl]` [cisplatin, reference compound], the “IC50 for cisplatinum in control cells” value in series [1] (OVCAR8 cells expressing a non-targeting mimic control) was 1.31 µg/mL. Further, the “IC50 for cisplatin in control cells” value in series [2] (SKOV3ip1 cells expressing the non-silencing control) was 0.43 µg/mL.

B1: hsa-mir-520a MI0003149 (nucleic acid, listed as Homo sapiens)
chain: CUCAGGCUGUGACCCUCCAGAGGGAAGUACUUUCUGUUGUCUGAGAGAAAAGAAAGUGCUUCCCUUUGGACUGUUUCGGUUUGAG
modifications: expressed or natural sequence
notes: seed 5'aagugcu; mimic or stably expressed
In the case of B1, the “Impact on proliferation or apoptosis” value in series [3] was “impacted proliferation and/or apoptosis in some but not all”. For the same molecule, the “Apoptosis (caspase 3/7)” value in series [4] (OVCAR8, transient/acute mimic transfection vs non-silencing control, no cisplatin) was “decreased rates of apoptosis”; in series [5] (SKOV3ip1, acute mimic transfection, no cisplatin) it was “decreased rates of apoptosis”. For the same molecule, the “Apoptosis in presence of cisplatin” value is “significantly decreased; also recorded: significantly lower rates of apoptosis” in series [4] (OVCAR8 stable clones, cisplatin up to 10 μg/mL) and “significantly increased” in series [5] (SKOV3ip1 stable clones, cisplatin treatment). Moreover, the “Sensitization to cisplatin (viability)” value in series [1] (OVCAR8 stable clones vs non-silencing mimic, cisplatin <5 μg/mL) is “sensitized”; in series [2] (SKOV3ip1 stable clones vs non-silencing mimic), “appeared to sensitize”. Besides, in series [6], the Proliferation result was “decreased proliferation only in OVCAR8 cells”.

Values taken from patent US9758785B2, “miR-520 microRNAs sensitize cancers to platinum-based therapy” (BAYLOR COLLEGE OF MEDICINE, priority 2012, dated 2017).
